Test results reported in publication PMC11530556.

Biological target: full-length Titin N2B unique sequence (N2B-us) single-molecule construct, 6His-Avi-2I27-N2B-2I27-Spy (human)
Experiment: magnetic tweezers single-molecule manipulation; full-length N2B-us tether; jump to 8 pN procedure: 1 pN for 10 s, 8 pN for 20 s, back to 1 pN; bead height difference at 1 pN; 200 nM FHL2; five tethers

full-length Titin N2B unique sequence (N2B-us) single-molecule construct, 6His-Avi-2I27-N2B-2I27-Spy (human), sequence (Q8WZ42 3717-4288): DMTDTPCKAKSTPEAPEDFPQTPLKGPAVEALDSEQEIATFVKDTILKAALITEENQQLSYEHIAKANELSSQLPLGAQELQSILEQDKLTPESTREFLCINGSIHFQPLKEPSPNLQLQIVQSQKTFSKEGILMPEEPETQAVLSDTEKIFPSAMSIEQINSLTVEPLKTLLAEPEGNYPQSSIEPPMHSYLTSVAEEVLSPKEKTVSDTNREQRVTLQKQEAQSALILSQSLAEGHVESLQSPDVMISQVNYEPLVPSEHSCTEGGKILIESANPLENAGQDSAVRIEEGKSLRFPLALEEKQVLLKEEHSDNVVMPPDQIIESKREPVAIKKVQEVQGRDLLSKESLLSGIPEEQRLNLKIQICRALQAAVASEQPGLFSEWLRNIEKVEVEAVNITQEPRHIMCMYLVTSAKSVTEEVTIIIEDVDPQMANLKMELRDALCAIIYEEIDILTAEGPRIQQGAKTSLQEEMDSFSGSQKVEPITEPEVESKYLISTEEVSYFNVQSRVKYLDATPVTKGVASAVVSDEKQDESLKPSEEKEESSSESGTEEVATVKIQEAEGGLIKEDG

- average extension difference at 1 pN before and after 20 s at 8 pN, with 200 nM FHL2: 10 nm
Substance: Recombinant GST-FHL2 protein (four-and-a-half LIM domain protein 2) (natural protein)
